Values of other authors, collected in US20260217837A1, “FGFR3 BINDING MOLECULES AND METHODS OF USE THEREOF” (Regeneron Pharmaceuticals, Inc., priority 2023, published 2026).
Read-outs that look alike come from different tables or passages of the source.

Tested on: FGFR3
[1] = Table T-1, exemplary FGFR3 parental antibodies of cited publications
[2] = Exemplary FGFR3 D3 binding sequences, antibodies of cited PCT publications

Molecule	Activity [1]	Activity [2]
MS-Pro-2: anti-FGFR3 Ig-like domain 2 antibody of WO 2002/102972 A2; SEQ ID NO: 24/25 (antibody, V domains shown) VH: QVQLVQSGAEVKKPGASVKVSCKASGYTFTSYYMHWVRQAPGQGLEWMGWINPNSGGTNYAQKFQGRVTMTRDTSISTAYMELSSLRSEDTAVYYCARDFLGYEFDYWGQGTLVTVSS VL: DIELTQPPSVSVAPGQTARISCSGDALGDKYASWYQQKPGQAPVLVIYDDSDRPSGIPERFSGSNSGNTATLTISGTQAEDEADYYCQSYDYSADYVFGGGTKLTVLGQ	Antagonistic	
FGA0005: anti-FGFR3 (S249C mutant) antibody of WO 2021/010326 A1; SEQ ID NO: 86/87 (antibody, V domains shown) VH: QSLEESGGRLVTPGTPLTLTCTASGFSLSTYWICWVRQAPGEGLEWIGYISSSGNTYYASWAKGRFTISKTSSTTVDLKMTSLTTEDTATYFCGGHNSDYITGWALDPWGPGTLVTVSS VL: AAVLTQTASPMSAAVGGTVTINCQSSKSVYRDKWLSWFQQKPGQPPKLLIYGASNLASGVSSRFKGSGSGTQFTLTISDVQCDDAATYYCLGGYSDNSEDAFGGGTEVVVK	Antagonistic	
FGA0007: anti-FGFR3 (S249C mutant) antibody of WO 2021/010326 A1; SEQ ID NO: 88/89 (antibody, V domains shown) VH: QSVEESGGRLVTPGTPLTLTCTVSGFSLSSYPMSWVRQAPGKGLEWIGIISSSGRTYYASWAKGRFTISKASSTTAALKMTSLTTEDTATYFCARGGVYKYDDYGDYVLNLWGRGTLVTVSS VL: AIEMTQTPFSVSAAVGGTVTINCQASENIYSNLAWYQQKPGQPPKLLIYAASYLASGVPSRFKGSGSGTDYTLTISGVQCADAATYYCQCTLYSSTYGVAFGGGTEVVVK	Antagonistic	
MS-Pro-26: anti-FGFR3 Ig-like domain 3 antibody of WO 2002/102972 A2; SEQ ID NO: 36/37 (antibody, V domains shown) VH: QVQLVQSGAEVKKPGASVKVSCKASGYTFTSYYMHWVRQAPGQGLEWMGWINPNSGGTNYAQKFQGRVTMTRDTSISTAYMELSSLRSEDTAVYYCARGYWYAYFTYINYGYFDNWGQGTLVTVSS VL: DIALTQPASVSGSPGQSITISCTGTSSDVGGYNYVSWYQQHPGKAPKLMIYDVSNRPSGVSNRFSGSKSGNTASLTISGLQAEDEADYYCQSYDNNSDWFGGGTKLTVLGQ	Antagonistic	Antagonistic
MS-Pro-28: anti-FGFR3 Ig-like domain 3 antibody of WO 2002/102972 A2; SEQ ID NO: 38/39 (antibody, V domains shown) VH: QVQLVQSGAEVKKPGSSVKVSCKASGGTFSSYAISWVRQAPGQGLEWMGGIIPIFGTANYAQKFQGRVTITADESSTAYMELSSLRSEDTAVYYCARGGGWVSHGYYYLFDLWGQGTLVTVSS VL: DIQMTQSPSSLSASVGDRVTITCRASQGISSYLAWYQQKPGKAPKLLIYAASSLQSGVPSRFSGSGSGTDFTLTISSLQPEDFAVYYCFQYGSIPPTFGQGTKVEIKRT	Antagonistic	Antagonistic
MS-Pro-29: anti-FGFR3 Ig-like domain 3 antibody of WO 2002/102972 A2; SEQ ID NO: 40/41 (antibody, V domains shown) VH: QVQLVQSGAEVKKPGASVKVSCKASGYTFTSYYMHWVRQAPGQGLEWMGWINPNSGGTNYAQKFQGRVTMTRDTSISTAYMELSSLRSEDTAVYYCARTWQYSYFYYLDGGYYFDIWGQGTLVTVSS VL: DIVLTQSPATLSLSPGERATLSCRASQSVSSSYLAWYQQKPGQAPRLLIYGASSRATGVPARFSGSGSGTDFTLTISSLEPEDFATYYCQQTNNAPVTFGQGTKVEIKRT	Antagonistic	Antagonistic
